Results from patent US20210238289A1.
Blank lines part the entries; values can stand above or below the substance they belong to.

What was measured:
CD32a = CD32a (UniProt P12318); test: solution competition SPR (Biacore)
[1] = molecular target: VLA-4 on tumor cell lines (UniProt P13612); test: flow cytometry on H929 cells (MM)
[2] = molecular target: VLA-4 on tumor cell lines (UniProt P13612); test: flow cytometry on JM1 cells (CLL)
[3] = molecular target: VLA-4 on tumor cell lines (UniProt P13612); test: flow cytometry on KG1 cells (AML)
[4] = molecular target: VLA-4 on tumor cell lines (UniProt P13612); test: flow cytometry on U266 cells (MM)
[5] = molecular target: VLA-4 on tumor cell lines (UniProt P13612); test: flow cytometry on HL60 cells (AML)
[6] = molecular target: VLA-4 on tumor cell lines (UniProt P13612); test: flow cytometry on Mec1 cells (CLL)
[7] = molecular target: VLA-4 on tumor cell lines (UniProt P13612); test: inhibition of adhesion of JM1 cells to VCAM1-Ig-coated wells
[8] = molecular target: VLA-4 on tumor cell lines (UniProt P13612); test: inhibition of adhesion of KG1 cells to VCAM1-Ig-coated wells
[9] = molecular target: VLA-4 on tumor cell lines (UniProt P13612); test: inhibition of adhesion of H929 cells to VCAM1-Ig-coated wells
[10] = molecular target: VLA-4 on tumor cell lines (UniProt P13612); test: inhibition of adhesion of HL60 cells to VCAM1-Ig-coated wells
[11] = molecular target: VLA-4 on tumor cell lines (UniProt P13612); test: inhibition of adhesion of Mec1 cells to VCAM1-Ig-coated wells
[12] = molecular target: VLA-4 on tumor cell lines (UniProt P13612); test: inhibition of adhesion of U266 cells to VCAM1-Ig-coated wells
[13] = molecular target: VLA-4 on tumor cell lines (UniProt P13612); test: inhibition of adhesion of KG1 cells to fibronectin-coated wells
[14] = molecular target: VLA-4 on tumor cell lines (UniProt P13612); test: inhibition of adhesion of H929 cells to fibronectin-coated wells
[15] = molecular target: VLA-4 on tumor cell lines (UniProt P13612); test: inhibition of adhesion of HL60 cells to fibronectin-coated wells
[16] = molecular target: VLA-4 on tumor cell lines (UniProt P13612); test: inhibition of adhesion of Mec1 cells to fibronectin-coated wells
[17] = molecular target: VLA-4 on tumor cell lines (UniProt P13612); test: inhibition of adhesion of U266 cells to fibronectin-coated wells
[18] = molecular target: α4β1 (VLA-4) as used in the competition ELISAs (UniProt P13612); test: competition ELISA; mixture of mouse HP1/2 with test mAb binding to integrin
[19] = molecular target: α4β1 (VLA-4) as used in the competition ELISAs (UniProt P13612); test: competition ELISA; integrin preincubated with test mAb, then murine HP1/2 as competing reagent
[20] = molecular target: VLA receptors (alpha-4 integrin) of cynomolgus monkeys in vivo (cynomolgus monkey); test: free receptor measured in cynomolgus monkeys after a single IV dose
[21] = molecular target: VLA receptors (alpha-4 integrin) of cynomolgus monkeys in vivo (cynomolgus monkey); test: model-estimated (direct Emax PKPD model) EC50 for the formation of drug-bound VLA in cynomolgus monkeys

TYSABRI (natalizumab) (antibody), sequence (VH): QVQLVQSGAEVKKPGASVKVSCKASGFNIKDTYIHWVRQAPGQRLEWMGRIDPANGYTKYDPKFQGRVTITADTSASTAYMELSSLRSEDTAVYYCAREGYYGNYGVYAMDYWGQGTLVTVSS
TYSABRI (natalizumab) (antibody), sequence (VL): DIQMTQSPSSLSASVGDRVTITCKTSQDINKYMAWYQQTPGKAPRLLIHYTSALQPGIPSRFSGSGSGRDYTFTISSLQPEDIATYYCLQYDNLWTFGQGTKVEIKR

IC50 (CD32a): 1280 µM
Substance: EAG2379 (hu5c8 IgG1 T299E) (antibody)

EC50 [1]: 0.00091 µM | EC50 [2]: 0.00021 µM | EC50 [3]: 0.00019 µM | EC50 [4]: 0.00046 µM | EC50 [5]: 0.00011 µM | EC50 [6]: 0.00011 µM | IC50 [7]: 0.00012 µM | IC50 [8]: 0.0001 µM | IC50 [9]: 0.00135 µM | IC50 [10]: 0.00091 µM | IC50 [11]: 0.07 nM | IC50 [12]: 0.00013 µM | IC50 [13]: 0.05 nM | IC50 [14]: 0.00021 µM | IC50 [15]: 0.00016 µM | IC50 [16]: 0.0001 µM | IC50 [17]: 0.00014 µM | IC50 [18]: 0.00141 µM | IC50 [19]: 0.00105 µM
Substance: HuHP1/2 (antibody)

receptor occupancy [20]: > 90% | EC50 [21]: 6.4 ng/mL
Substance: TYSABRI (natalizumab) (antibody)
